{"source": "paper PMC10526274", "about": "“Epithelial-Immune Cell Crosstalk Determines the Activation of Immune Cells In Vitro by the Human Cathelicidin LL-37 at Low Physiological Concentrations” (Biomolecules, 2023)", "tested_on": "Caco-2 polarized monolayer", "experiment": "Bidirectional transport of FITC-LL-37 through the Caco-2 epithelial monolayer", "format": "in vitro ADME, human", "description": "Caco-2 cell line (ATCC HTB-37) was cultured in a humidified CO2-incubator (5% CO2, 37 °C) in the complete DMEM/F12 (1:1) medium (Gibco, Waltham, MA, USA) containing 10% fetal bovine serum (FBS, Gibco) and 1X antibiotic–antimycotic solution (Gibco). To stabilize the cell phenotype, Caco-2 cells have been subcultivated three times before seeding on the filter supports. Then, Caco-2 cells were seeded at a density of 2 × 10^5 cells/cm^2 onto 24-well Millicell cell culture inserts (PC, 0.4-μm pore size, 0.6 cm^2 surface area, cat. #PIHP01250) (Millipore, Burlington, MA, USA), precoated with 0.2% bovine gelatin (Sigma-Aldrich, Saint Louis, MO, USA). After seeding, Caco-2 cells were grown in the same complete medium with re-feeding every 2–3 days until polarization of the monolayer occurred. The functional polarity of the monolayers was developed when transepithelial electrical resistance (TEER) between the apical and basolateral surfaces of the monolayers reached […] as measured by the electrical resistance system Millicell-ERS Voltohmmeter (Millipore, Burlington, MA, USA). Grown cell monolayers were used in transport and cytokine production experiments between the 21st and 29th days.\nLL-37 was labeled with fluorescein isothiocyanate isomer I (FITC) (Sigma-Aldrich). For coupling with FITC, 0.5 mg of LL-37 in 50 µL of DMSO was first mixed with 200 µL of the carbonate–bicarbonate coupling buffer (0.1 M sodium carbonate, 0.1 M sodium bicarbonate, pH 10.4). Then, 4 mg of FITC in 200 µL of DMSO was added to the solution, and the resultant mixture was incubated in the dark at room temperature (20–22 °C) for 2 h. FITC-LL-37 was purified by using a PD10 gel-filtration column (GE Healthcare, Chicago, IL, USA) pre-equilibrated with PBS.\nThe penetration capability of FITC-LL-37 was investigated using Caco-2 cells as an in vitro model of the intestinal epithelial barrier, grown on permeable Millicell cell culture inserts. Transport of the compound from both sides of the monolayer was determined in the transport buffer (Hank’s balanced salt solution, containing 25 mM HEPES, 1 mM MgCl2, 1 mM CaCl2, and 10 mM D(+)glucose, pH 7.4). […]\nTransfer of LL-37 through Caco-2 monolayers under steady-state conditions was evaluated mathematically for each direction and each insert by the apparent permeability coefficient (Papp), calculated according to the following Equation (1): Papp = ΔC/Δt × (V/(A × Ci))(1) where ΔC/Δt is the solute flux (nM/s) across the barrier, V is the volume of the acceptor chamber, A is the effective filter area of the well (cm^2), and Ci is the initial concentration of the donor solution (nM). […]"}
{"substance": "LL-37: the only human cathelicidin, host defense antimicrobial peptide of 37 a.a. residues, produced by solid-phase peptide synthesis", "values": [{"measurement": "Apparent permeability (Papp) B → A (secretory)", "setting": "Caco-2 (ATCC HTB-37) on Millicell PC inserts, day 21-29, TEER 400, basolateral-to-apical, FITC-labeled LL-37, 5 µM donor, HBSS, 25 mM HEPES, pH 7.4 both sides, 37 °C, 90 min, range over 4 independent inserts", "value": "1.7–2.1 × 10^−6 cm/s"}, {"measurement": "Uptake ratio (UR) = Papp(A → B)/Papp(B → A)", "setting": "Caco-2, FITC-labeled LL-37 5 µM, pH 7.4, 90 min", "value": 0.51}, {"measurement": "Efflux ratio (ER) = Papp(B → A)/Papp(A → B)", "setting": "Caco-2, FITC-labeled LL-37 5 µM, pH 7.4, 90 min, no inhibitor", "value": 1.95}, {"measurement": "Predicted absorption in the human gut", "setting": "predicted from Caco-2 Papp A → B by the classification of ref 20", "value": "0–20%"}]}
